Measurements from patent US20200392227A1 (LYVGEN BIOPHARMA, published 2020).
Read-outs that look alike come from different tables or passages of the source. Each block holds one binder with its values, some of them ahead of it.

Experiments:
[1] = target: T1, human FcγRI expressed on CHO cells (human, UniProt P12314 16-374); experiment: FACS, CHO cells expressing FcγRI
T1 construct: whole, on cells
Summary of the method: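 Trypsin-harvested CHO cells overexpressing each FcγR were incubated 2 h at 4 °C with IgG mutants in 3% BSA/PBS. Bound IgG was detected with PE-labeled anti-human IgG (2 h, 4 °C), then cells were fixed in 2% PFA and analysed by flow cytometry.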

[2] = target: T2, human FcγRIIC expressed on CHO cells (human, UniProt P31995 43-323); experiment: FACS, CHO cells expressing FcγRIIC
T2 construct: whole, on cells
T2 sequence (looked up): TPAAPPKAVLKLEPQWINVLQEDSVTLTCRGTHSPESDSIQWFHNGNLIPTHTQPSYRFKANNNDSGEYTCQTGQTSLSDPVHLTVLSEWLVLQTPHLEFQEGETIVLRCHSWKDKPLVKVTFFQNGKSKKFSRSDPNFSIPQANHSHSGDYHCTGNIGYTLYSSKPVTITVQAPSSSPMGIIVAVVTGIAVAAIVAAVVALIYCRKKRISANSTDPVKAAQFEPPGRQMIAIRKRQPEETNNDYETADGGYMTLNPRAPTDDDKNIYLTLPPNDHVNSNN
Experimental: (§1) For FACS analysis of the IgG mutants' binding to different FcγRs, FcγR overexpressing CHO cells were harvested using trypsin-EDTA and were suspended in cold staining buffer (3% BSA in PBS). Test IgG mutants, which were diluted in staining buffer, were added into the cells. The mixture was incubated 4° C. for 2 hours, and then washed twice with cold staining buffer and re-suspended in PE-labeled anti-human IgG followed by incubation at 4° C. for 2 hours. The mixture was washed twice with staining buffer and re-suspended in 2% PFA in PBS for FACS.

[3] = target: T3, human FcRIIB/C protein (MednaBio, E1034) (human, UniProt P31994 43-217, limits assumed); experiment: BLI
T3 construct: Bought as FcRIIB/C; also called FcγRIIB; CD32B
T3 sequence (looked up): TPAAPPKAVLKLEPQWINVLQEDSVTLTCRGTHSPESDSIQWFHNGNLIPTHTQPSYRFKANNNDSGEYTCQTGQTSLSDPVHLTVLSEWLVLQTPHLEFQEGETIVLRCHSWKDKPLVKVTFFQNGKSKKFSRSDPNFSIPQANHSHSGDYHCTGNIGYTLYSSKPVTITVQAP
Summary of the method: (§2)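 Binding was measured by biolayer interferometry on an Octet Red96 System. Commercial human Fc receptor proteins were loaded at 20 μg/mL onto anti-penta-HIS biosensors, which were then dipped into an 8-point 1:3 dilution series of test IgG starting at 300 nM in PBS with 0.1% BSA and 0.02% Tween-20, at pH 7.2 for Fcγ receptors and pH 6 for FcRn. Kd, kon and koff were obtained by global fitting, with data fitted to a 1:1 binding model.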

[4] = target: T4, human FcRn protein (MednaBio, E1032) (human, UniProt P55899 24-297; P61769 21-119); experiment: BLI
T4 construct: Bought; assays at pH 6
Summary of the method: as §2

[5] = target: T5, human FcRIIA protein (MednaBio, E1033) (human, UniProt P12318 34-218, limits assumed); experiment: BLI
T5 construct: Bought; also called FcγRIIA
T5 sequence (looked up): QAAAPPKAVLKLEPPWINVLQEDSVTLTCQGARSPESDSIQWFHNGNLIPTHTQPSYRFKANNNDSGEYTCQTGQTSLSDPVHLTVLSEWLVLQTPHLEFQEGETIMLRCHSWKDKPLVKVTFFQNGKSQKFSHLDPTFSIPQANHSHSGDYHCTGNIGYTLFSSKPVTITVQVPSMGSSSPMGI
Summary of the method: as §2

[6] = target: T2, human FcγRIIC expressed on CHO cells; experiment: FACS, CHO cells expressing FcγRIIC; remark: listed apart in the source
[7] = target: T6, human FcγRIIA(H131) expressed on CHO cells (human, UniProt P12318 34-317); experiment: FACS, CHO cells expressing FcγRIIA(H131)
T6 construct: whole, on cells
T6 sequence (looked up): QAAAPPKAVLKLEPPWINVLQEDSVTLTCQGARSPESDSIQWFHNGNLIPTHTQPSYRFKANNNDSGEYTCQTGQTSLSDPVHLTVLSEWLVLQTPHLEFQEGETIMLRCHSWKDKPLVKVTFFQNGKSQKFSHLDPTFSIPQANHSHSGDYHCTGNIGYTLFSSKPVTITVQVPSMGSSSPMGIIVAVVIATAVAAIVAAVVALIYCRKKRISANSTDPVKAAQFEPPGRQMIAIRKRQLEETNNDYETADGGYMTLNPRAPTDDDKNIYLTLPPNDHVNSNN
Experimental: as §1

[8] = target: T7, human FcRIIIA-V158 protein (MednaBio, E1035) (human, UniProt P08637 17-208); experiment: BLI
T7 construct: Bought; also called FcγRIIIA(V); FcgRIIIA(V)
Experimental: (§3) These IgG mutants were tested for binding to a panel of human Fc receptors (FcRs), including FcRn, using the Octet Red96 System (ForteBio, Model #Red96). Human FcR proteins were purchased commercially (FcRn, MednaBio, E1032; FcRI, MednaBio, E1031; FcRIIA, MednaBio, E1033; FcRIIB/C, MednaBio, E1034; FcRIIIA-F158, MednaBio, E1036; FcRIIIA-V158, MednaBio, E1035; FcRIIIB, MednaBio, E1037). All Fey receptor assays were performed at pH 7.2; all FcRn assays were performed at pH 6. The Fey receptors were loaded onto anti-penta-HIS1K (ForteBio, Cat #18-5122) biosensors at a concentration of 20 μg/mL. The loaded biosensors was then be dipped into an 8-point 1:3 dilution series of the test IgG molecules (including controls and the mutants described herein) in PBS with 0.1% BSA, 0.02% Tween-20 (pH 7.2) at a starting concentration of 300 nM. Kinetic analysis was performed using a 1:1 binding model and global fitting.

[9] = target: T3, human FcRIIB/C protein (MednaBio, E1034); experiment: BLI; remark: listed apart in the source
Experimental: as §3

[10] = target: T8, human FcRIIIB protein (MednaBio, E1037) (human, UniProt O75015 17-200); experiment: BLI
T8 construct: Bought; also called FcγRIIIB; FcgRIIIB
Experimental: as §3

[11] = target: T9, human FcRI protein (MednaBio, E1031) (human, UniProt P12314 16-288, limits assumed); experiment: BLI
T9 construct: Bought; loaded on anti-penta-HIS biosensors; also called FcγRI
Experimental: as §3

[12] = target: T4, human FcRn protein (MednaBio, E1032); experiment: BLI; remark: listed apart in the source
Experimental: as §3

[13] = target: T5, human FcRIIA protein (MednaBio, E1033); experiment: BLI; remark: listed apart in the source
Experimental: as §3

[14] = target: T10, human FcRIIIA-F158 protein (MednaBio, E1036) (human, UniProt P08637 17-208); experiment: BLI
T10 construct: Bought; also called FcγRIIIA(F)
Experimental: as §3

T1 sequence (P12314 16-374): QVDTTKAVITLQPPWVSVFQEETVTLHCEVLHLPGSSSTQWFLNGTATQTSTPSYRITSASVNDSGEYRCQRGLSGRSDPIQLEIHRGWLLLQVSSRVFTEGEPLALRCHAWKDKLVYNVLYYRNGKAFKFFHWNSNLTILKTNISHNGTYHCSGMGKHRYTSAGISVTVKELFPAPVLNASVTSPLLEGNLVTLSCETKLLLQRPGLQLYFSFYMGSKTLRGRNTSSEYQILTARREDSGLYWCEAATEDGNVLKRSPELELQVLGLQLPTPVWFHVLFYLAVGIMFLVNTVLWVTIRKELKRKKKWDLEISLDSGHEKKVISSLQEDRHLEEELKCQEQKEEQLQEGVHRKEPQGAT
T9 sequence (P12314 16-288 limits assumed): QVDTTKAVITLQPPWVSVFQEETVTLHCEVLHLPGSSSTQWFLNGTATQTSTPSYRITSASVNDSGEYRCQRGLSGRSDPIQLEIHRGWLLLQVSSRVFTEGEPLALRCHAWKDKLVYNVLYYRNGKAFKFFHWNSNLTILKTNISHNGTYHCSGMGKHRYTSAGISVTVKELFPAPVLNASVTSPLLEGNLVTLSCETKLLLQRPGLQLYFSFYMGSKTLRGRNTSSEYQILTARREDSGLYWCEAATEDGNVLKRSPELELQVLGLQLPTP
T7 sequence (P08637 17-208 F176V): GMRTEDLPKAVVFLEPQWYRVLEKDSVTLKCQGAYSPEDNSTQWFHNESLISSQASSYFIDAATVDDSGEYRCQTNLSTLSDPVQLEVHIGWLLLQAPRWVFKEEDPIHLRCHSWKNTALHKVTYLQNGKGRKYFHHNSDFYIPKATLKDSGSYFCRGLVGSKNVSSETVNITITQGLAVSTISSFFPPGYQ
T10 sequence (P08637 17-208 limits assumed): as the sequence (P08637 17-208 F176V) above, with V160F counted along it
T8 sequence (O75015 17-200 limits assumed): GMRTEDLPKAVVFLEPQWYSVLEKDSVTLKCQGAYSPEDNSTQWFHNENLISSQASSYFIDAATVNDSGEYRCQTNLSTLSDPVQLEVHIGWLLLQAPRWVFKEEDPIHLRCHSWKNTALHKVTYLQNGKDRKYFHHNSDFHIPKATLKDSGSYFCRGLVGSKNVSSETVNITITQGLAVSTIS

binding result [1]: binds
binding result [2]: binds
Kd [3]: 280 nM
koff [3]: 0.019 s⁻¹
kon [3]: 68000 M⁻¹ s⁻¹
Kd [4]: 52 nM
koff [4]: 0.011 s⁻¹
kon [4]: 210000 M⁻¹ s⁻¹
Kd [5]: 600 nM
koff [5]: 0.024 s⁻¹
kon [5]: 40000 M⁻¹ s⁻¹
B1: anti-CD137 IgG4 with Fc variant G4m17 (antibody)
heavy: EVQLVQSGAEVKKPGESLRISCKGSGYSFSTYWISWVRQMPGKGLEWMGKIYPGDSYTNYSPSFQGQVTISADKSISTAYLQWSSLKASDTAMYYCARGYGIFDYWGQGTLVTVSSASTKGPSVFPLAPCSRSTSESTAALGCLVKDYFPEPVTVSWNSGALTSGVHTFPAVLQSSGLYSLSSVVTVPSSSLGTKTYTCNVDHKPSNTKVDKRVESKYGPPCPPCPAPEFLSVFLFPPKPKDTLMISRTPEVTCVVVDVEQEDPEVQFNWYVDGVEVHNAKTKPREEQFNSTYRVVSVLTVLHQDWLNGKEYKCKVSNKGLPSSIEKTISKAKGQPREPQVYTLPPSQEEMTKNQVSLTCLVKGFYPSDIAVEWESNGQPENNYKTTPPVLDSDGSFFLYSRLTVDKSRWQEGNVFSCSVMHEALHNHYTQKSLSLSLGK
light: SYELTQPPSVSVSPGQTASITCSGDNIGDQYAHWYQQKPGQSPVLVIYQDKNRPSGIPERFSGSNSGNTATLTISGTQAMDEADYYCATYTGFGSLAVFGGGTKLTVLGQPKAAPSVTLFPPSSEELQANKATLVCLISDFYPGAVTVAWKADSSPVKAGVETTTPSKQSNNKYAASSYLSLTPEQWKSHRSYSCQVTHEGSTVEKTVAPTECS
notes: copies: 2 + 2

binding result [6]: no binding (tested: 10 ug/ml)
binding result [7]: no binding (tested: 10 ug/ml)
binding result [8]: no binding (tested: 300 nM)
binding result [9]: no binding (tested: 300 nM)
binding result [10]: no binding (tested: 300 nM)
binding result [11]: no binding (tested: 300 nM)
Kd [12]: 19 nM
koff [12]: 0.0098 s⁻¹
kon [12]: 510000 M⁻¹ s⁻¹
binding result [13]: no binding (tested: 300 nM)
binding result [14]: no binding (tested: 300 nM)
B2: anti-CD137 IgG4 with Fc variant G4m20 (antibody)
heavy: EVQLVQSGAEVKKPGESLRISCKGSGYSFSTYWISWVRQMPGKGLEWMGKIYPGDSYTNYSPSFQGQVTISADKSISTAYLQWSSLKASDTAMYYCARGYGIFDYWGQGTLVTVSSASTKGPSVFPLAPCSRSTSESTAALGCLVKDYFPEPVTVSWNSGALTSGVHTFPAVLQSSGLYSLSSVVTVPSSSLGTKTYTCNVDHKPSNTKVDKRVESKYGPPCPPCPAPEFLGSVFLFPPKPKDTLMISRTPEVTCVVVDVSQEDPEVQFNWYVDGVEVHNAKTKPREEQFNSTYRVVSVLTVLHQDWLNGKEYKCKVSNKGLPSSIEKTISKAKGQPREPQVYTLPPSQEEMTKNQVSLTCLVKGFYPSDIAVEWESNGQPENNYKTTPPVLDSDGSFFLYSRLTVDKSRWQEGNVFSCSVMHEALHNHYTQKSLSLSLGK
light: SYELTQPPSVSVSPGQTASITCSGDNIGDQYAHWYQQKPGQSPVLVIYQDKNRPSGIPERFSGSNSGNTATLTISGTQAMDEADYYCATYTGFGSLAVFGGGTKLTVLGQPKAAPSVTLFPPSSEELQANKATLVCLISDFYPGAVTVAWKADSSPVKAGVETTTPSKQSNNKYAASSYLSLTPEQWKSHRSYSCQVTHEGSTVEKTVAPTECS
notes: copies: 2 + 2
